Assay results as given in US20260207798A1, “CYCLIC PEPTIDES AS PET IMAGING AGENTS OF GRANZYME B” (priority 2022, published 2026).
Bridge positions count the residues as written; N and C are the ends. Square brackets hold non-standard residues; d marks the D form. NEtAla = CCN[C@@H](C)C(=O)O; NMeA = CN[C@@H](C)C(=O)O

Molecular target: T1, human Granzyme B (human, UniProt P10144 21-247)
T1 construct: Captured on a Series S Streptavidin chip for SPR; also called hGranzyme B; GzmB
Test: SPR, Biacore 8k+, hGranzyme B captured on SA chip, single cycle kinetics, 1:1 model
Experimental: The kinetics of test peptide binding to human Granzyme B (hGranzyme B) was determined by SPR. All experiments were performed at 25° C. using the Biacore 8k+ instrument (Cytiva, Marlborough, MA). The Biacore 8k+ Insight Evaluation Software Version 3.0 was used to fit the data with a 1:1 binding model to determine the association rate constant kₐ (M⁻¹s⁻¹, where “M” ~equals molar and “s” ~equals seconds) and the dissociation rate constant kd (s⁻¹). These rate constants were used to calculate the equilibrium dissociation constant. KD (M)=kd/kₐ.
To measure the binding kinetics of peptides of interest, surfaces were prepared by a capture method to a Series S Streptavidin (SA) chip using a 1×HBS-EP+ running buffer (Cytiva). hGranzyme B was diluted to 10 μg/mL in IX HBS-EP+ and flowed over spot 2 of each flow cell on the chip at a flow rate of 10 ul/min for 20 s to achieve a level of capture of ~1100 RU. An unmodified spot 1 of each flow cell was used as a matrix binding control or reference surface. Binding kinetics were measured using single cycle kinetics at 25° C. by injecting 5 concentrations with 3-fold serial dilutions of test peptides from 0.01 μM to 1 μM. Compound dilutions were performed manually in a running buffer containing 1×HBS-EP+(Cytiva), and a final concentration of 2% DMSO. The interaction analyses over hGranzyme B, were performed using a 120 s association time and a 900 s dissociation time. All experiments were conducted at a flow rate of 50 μL/min with a data collection rate of 10 Hz.
Peptide dilution series included 2 zero concentration points (no compound) which were averaged and subtracted from the peptide concentration injection as DMSO control responses. Binding data acquired from the reference surface (matrix binding control) were subtracted from the binding data for hGranzyme B surface on the chip to determine specific binding. Next, the association phase data were solvent corrected to account for any signal fluctuation throughout the experiment due to subtle DMSO concentration differences. Corrected response data were analyzed using the Biacore 8k+ Evaluation Software Version 3.0 according to the manufacturer. SPR data for representative compounds of the disclosure are found in Table 8.

T1 sequence (P10144 21-247 limits assumed): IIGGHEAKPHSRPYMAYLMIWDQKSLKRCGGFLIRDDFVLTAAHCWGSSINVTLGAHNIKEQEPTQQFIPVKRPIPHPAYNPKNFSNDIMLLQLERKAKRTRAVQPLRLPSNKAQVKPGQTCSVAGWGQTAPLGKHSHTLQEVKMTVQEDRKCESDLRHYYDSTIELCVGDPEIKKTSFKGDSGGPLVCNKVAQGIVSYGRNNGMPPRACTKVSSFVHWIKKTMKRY

| Kd | Binder |
| --- | --- |
| 6 nM | {CH2CO}-FNFEDQSPYTWQPCG-NH2 (thioether N-14; SMILES C[C@@H](O)[C@@H]1NC(=O)[C@H](Cc2ccc(O)cc2)NC(=O)[C@@H]2CCCN2C(=O)[C@H](CO)NC(=O)[C@H](CCC(N)=O)NC(=O)[C@H](CC(=O)O)NC(=O)[C@H](CCC(=O)O)NC(=O)[C@H](Cc2ccccc2)NC(=O)[C@H](CC(N)=O)NC(=O)[C@H](Cc2ccccc2)NC(=O)CSC[C@@H](C(=O)NCC(N)=O)NC(=O)[C@@H]2CCCN2C(=O)[C@H](CCC(N)=O)NC(=O)[C@H](Cc2c[nH]c3ccccc23)NC1=O) [Compound 59a] |
| 11 nM | {CH2CO}-FNFEDQSPGTWQPCG-NH2 (thioether N-14; SMILES C[C@@H](O)[C@@H]1NC(=O)CNC(=O)[C@@H]2CCCN2C(=O)[C@H](CO)NC(=O)[C@H](CCC(N)=O)NC(=O)[C@H](CC(=O)O)NC(=O)[C@H](CCC(=O)O)NC(=O)[C@H](Cc2ccccc2)NC(=O)[C@H](CC(N)=O)NC(=O)[C@H](Cc2ccccc2)NC(=O)CSC[C@@H](C(=O)NCC(N)=O)NC(=O)[C@@H]2CCCN2C(=O)[C@H](CCC(N)=O)NC(=O)[C@H](Cc2c[nH]c3ccccc23)NC1=O) [Compound 65a] |
| 7.1 nM | {CH2CO}-FNFEDQGPDTWQPCG-NH2 (thioether N-14; SMILES C[C@@H](O)[C@@H]1NC(=O)[C@H](CC(=O)O)NC(=O)[C@@H]2CCCN2C(=O)CNC(=O)[C@H](CCC(N)=O)NC(=O)[C@H](CC(=O)O)NC(=O)[C@H](CCC(=O)O)NC(=O)[C@H](Cc2ccccc2)NC(=O)[C@H](CC(N)=O)NC(=O)[C@H](Cc2ccccc2)NC(=O)CSC[C@@H](C(=O)NCC(N)=O)NC(=O)[C@@H]2CCCN2C(=O)[C@H](CCC(N)=O)NC(=O)[C@H](Cc2c[nH]c3ccccc23)NC1=O) [Compound 63a] |
| 15.6 nM | {CH2CO}-FNFEDQSPDTWQ[NEtAla]CG-NH2 (thioether N-14; SMILES CCN1C(=O)[C@H](CCC(N)=O)NC(=O)[C@H](Cc2c[nH]c3ccccc23)NC(=O)[C@H]([C@@H](C)O)NC(=O)[C@H](CC(=O)O)NC(=O)[C@@H]2CCCN2C(=O)[C@H](CO)NC(=O)[C@H](CCC(N)=O)NC(=O)[C@H](CC(=O)O)NC(=O)[C@H](CCC(=O)O)NC(=O)[C@H](Cc2ccccc2)NC(=O)[C@H](CC(N)=O)NC(=O)[C@H](Cc2ccccc2)NC(=O)CSC[C@@H](C(=O)NCC(N)=O)NC(=O)[C@@H]1C) [Compound 68a] |
| 6.1 nM | {CH2CO}-FNFEDQSPHTWQPCG-NH2 (thioether N-14; SMILES C[C@@H](O)[C@@H]1NC(=O)[C@H](Cc2c[nH]cn2)NC(=O)[C@@H]2CCCN2C(=O)[C@H](CO)NC(=O)[C@H](CCC(N)=O)NC(=O)[C@H](CC(=O)O)NC(=O)[C@H](CCC(=O)O)NC(=O)[C@H](Cc2ccccc2)NC(=O)[C@H](CC(N)=O)NC(=O)[C@H](Cc2ccccc2)NC(=O)CSC[C@@H](C(=O)NCC(N)=O)NC(=O)[C@@H]2CCCN2C(=O)[C@H](CCC(N)=O)NC(=O)[C@H](Cc2c[nH]c3ccccc23)NC1=O) [Compound 60a] |
| 12.4 nM | {CH2CO}-FNFEDQSPDTWQ[NMeA]CG-NH2 (thioether N-14; SMILES C[C@@H](O)[C@@H]1NC(=O)[C@H](CC(=O)O)NC(=O)[C@@H]2CCCN2C(=O)[C@H](CO)NC(=O)[C@H](CCC(N)=O)NC(=O)[C@H](CC(=O)O)NC(=O)[C@H](CCC(=O)O)NC(=O)[C@H](Cc2ccccc2)NC(=O)[C@H](CC(N)=O)NC(=O)[C@H](Cc2ccccc2)NC(=O)CSC[C@@H](C(=O)NCC(N)=O)NC(=O)[C@H](C)N(C)C(=O)[C@H](CCC(N)=O)NC(=O)[C@H](Cc2c[nH]c3ccccc23)NC1=O) [Compound 67a] |

The remaining lines, values behind:

| Binder | Kd |
| --- | --- |
| {CH2CO}-FNFEDQSAHTWQPCG-NH2 (thioether N-14; SMILES C[C@@H]1NC(=O)[C@H](CO)NC(=O)[C@H](CCC(N)=O)NC(=O)[C@H](CC(=O)O)NC(=O)[C@H](CCC(=O)O)NC(=O)[C@H](Cc2ccccc2)NC(=O)[C@H](CC(N)=O)NC(=O)[C@H](Cc2ccccc2)NC(=O)CSC[C@@H](C(=O)NCC(N)=O)NC(=O)[C@@H]2CCCN2C(=O)[C@H](CCC(N)=O)NC(=O)[C@H](Cc2c[nH]c3ccccc23)NC(=O)[C@H]([C@@H](C)O)NC(=O)[C@H](Cc2c[nH]cn2)NC1=O) [Compound 37a] | 19.1 nM |
| {CH2CO}-FNFEDQSPATWQPCG-NH2 (thioether N-14; SMILES C[C@@H]1NC(=O)[C@@H]2CCCN2C(=O)[C@H](CO)NC(=O)[C@H](CCC(N)=O)NC(=O)[C@H](CC(=O)O)NC(=O)[C@H](CCC(=O)O)NC(=O)[C@H](Cc2ccccc2)NC(=O)[C@H](CC(N)=O)NC(=O)[C@H](Cc2ccccc2)NC(=O)CSC[C@@H](C(=O)NCC(N)=O)NC(=O)[C@@H]2CCCN2C(=O)[C@H](CCC(N)=O)NC(=O)[C@H](Cc2c[nH]c3ccccc23)NC(=O)[C@H]([C@@H](C)O)NC1=O) [Compound 44a] | 3.5 nM |
| {CH2CO}-FNFEDQSPQTWQPCG-NH2 (thioether N-14; SMILES C[C@@H](O)[C@@H]1NC(=O)[C@H](CCC(N)=O)NC(=O)[C@@H]2CCCN2C(=O)[C@H](CO)NC(=O)[C@H](CCC(N)=O)NC(=O)[C@H](CC(=O)O)NC(=O)[C@H](CCC(=O)O)NC(=O)[C@H](Cc2ccccc2)NC(=O)[C@H](CC(N)=O)NC(=O)[C@H](Cc2ccccc2)NC(=O)CSC[C@@H](C(=O)NCC(N)=O)NC(=O)[C@@H]2CCCN2C(=O)[C@H](CCC(N)=O)NC(=O)[C@H](Cc2c[nH]c3ccccc23)NC1=O) [Compound 56a] | 5.5 nM |
| {CH2CO}-FNFEDQSPKTWQPCG-NH2 (thioether N-14; SMILES C[C@@H](O)[C@@H]1NC(=O)[C@H](CCCCN)NC(=O)[C@@H]2CCCN2C(=O)[C@H](CO)NC(=O)[C@H](CCC(N)=O)NC(=O)[C@H](CC(=O)O)NC(=O)[C@H](CCC(=O)O)NC(=O)[C@H](Cc2ccccc2)NC(=O)[C@H](CC(N)=O)NC(=O)[C@H](Cc2ccccc2)NC(=O)CSC[C@@H](C(=O)NCC(N)=O)NC(=O)[C@@H]2CCCN2C(=O)[C@H](CCC(N)=O)NC(=O)[C@H](Cc2c[nH]c3ccccc23)NC1=O) [Compound 58a] | 5.9 nM |
| {CH2CO}-YNFEDQSPDTWQPCG-NH2 (thioether N-14; SMILES C[C@@H](O)[C@@H]1NC(=O)[C@H](CC(=O)O)NC(=O)[C@@H]2CCCN2C(=O)[C@H](CO)NC(=O)[C@H](CCC(N)=O)NC(=O)[C@H](CC(=O)O)NC(=O)[C@H](CCC(=O)O)NC(=O)[C@H](Cc2ccccc2)NC(=O)[C@H](CC(N)=O)NC(=O)[C@H](Cc2ccc(O)cc2)NC(=O)CSC[C@@H](C(=O)NCC(N)=O)NC(=O)[C@@H]2CCCN2C(=O)[C@H](CCC(N)=O)NC(=O)[C@H](Cc2c[nH]c3ccccc23)NC1=O) [Compound 39a] | 1.1 nM |
| {CH2CO}-FNFEDQSPRTWQPCG-NH2 (thioether N-14; SMILES C[C@@H](O)[C@@H]1NC(=O)[C@H](CCCNC(=N)N)NC(=O)[C@@H]2CCCN2C(=O)[C@H](CO)NC(=O)[C@H](CCC(N)=O)NC(=O)[C@H](CC(=O)O)NC(=O)[C@H](CCC(=O)O)NC(=O)[C@H](Cc2ccccc2)NC(=O)[C@H](CC(N)=O)NC(=O)[C@H](Cc2ccccc2)NC(=O)CSC[C@@H](C(=O)NCC(N)=O)NC(=O)[C@@H]2CCCN2C(=O)[C@H](CCC(N)=O)NC(=O)[C@H](Cc2c[nH]c3ccccc23)NC1=O) [Compound 46a] | 3.8 nM |
| {CH2CO}-FNFEDQSPSTWQPCG-NH2 (thioether N-14; SMILES C[C@@H](O)[C@@H]1NC(=O)[C@H](CO)NC(=O)[C@@H]2CCCN2C(=O)[C@H](CO)NC(=O)[C@H](CCC(N)=O)NC(=O)[C@H](CC(=O)O)NC(=O)[C@H](CCC(=O)O)NC(=O)[C@H](Cc2ccccc2)NC(=O)[C@H](CC(N)=O)NC(=O)[C@H](Cc2ccccc2)NC(=O)CSC[C@@H](C(=O)NCC(N)=O)NC(=O)[C@@H]2CCCN2C(=O)[C@H](CCC(N)=O)NC(=O)[C@H](Cc2c[nH]c3ccccc23)NC1=O) [Compound 57a] | 5.7 nM |
